# Measured values published in patent publication US10450368 (DUKE UNIVERSITY, dated 2019).
# T1: Centromere B (UniProt P07199 1-599)
# T1 construct: also called Cent B
# T1 sequence: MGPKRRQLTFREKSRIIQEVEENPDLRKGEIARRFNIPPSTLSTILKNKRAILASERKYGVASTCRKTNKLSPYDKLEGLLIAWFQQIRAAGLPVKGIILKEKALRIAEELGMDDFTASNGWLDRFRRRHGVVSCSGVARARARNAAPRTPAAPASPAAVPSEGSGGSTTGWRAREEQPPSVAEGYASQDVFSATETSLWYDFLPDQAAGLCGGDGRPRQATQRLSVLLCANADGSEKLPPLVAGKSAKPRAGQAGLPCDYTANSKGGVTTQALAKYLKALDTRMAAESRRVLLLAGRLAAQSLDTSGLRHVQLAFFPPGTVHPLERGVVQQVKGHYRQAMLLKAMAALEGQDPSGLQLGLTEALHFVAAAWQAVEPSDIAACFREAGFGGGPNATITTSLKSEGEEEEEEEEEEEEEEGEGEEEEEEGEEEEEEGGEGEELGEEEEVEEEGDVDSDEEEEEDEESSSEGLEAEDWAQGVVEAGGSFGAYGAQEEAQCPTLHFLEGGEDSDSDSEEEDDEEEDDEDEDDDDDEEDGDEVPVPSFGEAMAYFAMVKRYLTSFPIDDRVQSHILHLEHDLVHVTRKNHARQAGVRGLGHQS
# T2: SSB (UniProt P05455 1-408)
# T2 sequence: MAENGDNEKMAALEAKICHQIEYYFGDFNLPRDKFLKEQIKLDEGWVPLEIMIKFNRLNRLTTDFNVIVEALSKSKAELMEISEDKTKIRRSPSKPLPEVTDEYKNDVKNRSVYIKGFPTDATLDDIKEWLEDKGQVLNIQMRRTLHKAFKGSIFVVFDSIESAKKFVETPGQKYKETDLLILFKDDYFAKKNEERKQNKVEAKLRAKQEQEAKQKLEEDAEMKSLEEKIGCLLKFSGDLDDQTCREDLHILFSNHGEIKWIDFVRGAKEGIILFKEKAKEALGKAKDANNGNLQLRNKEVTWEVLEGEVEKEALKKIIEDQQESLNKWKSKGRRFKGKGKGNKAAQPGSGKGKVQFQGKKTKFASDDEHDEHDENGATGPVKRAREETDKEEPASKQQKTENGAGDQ
# T3: Scl-70 (UniProt P11387 1-765)
# T3 sequence: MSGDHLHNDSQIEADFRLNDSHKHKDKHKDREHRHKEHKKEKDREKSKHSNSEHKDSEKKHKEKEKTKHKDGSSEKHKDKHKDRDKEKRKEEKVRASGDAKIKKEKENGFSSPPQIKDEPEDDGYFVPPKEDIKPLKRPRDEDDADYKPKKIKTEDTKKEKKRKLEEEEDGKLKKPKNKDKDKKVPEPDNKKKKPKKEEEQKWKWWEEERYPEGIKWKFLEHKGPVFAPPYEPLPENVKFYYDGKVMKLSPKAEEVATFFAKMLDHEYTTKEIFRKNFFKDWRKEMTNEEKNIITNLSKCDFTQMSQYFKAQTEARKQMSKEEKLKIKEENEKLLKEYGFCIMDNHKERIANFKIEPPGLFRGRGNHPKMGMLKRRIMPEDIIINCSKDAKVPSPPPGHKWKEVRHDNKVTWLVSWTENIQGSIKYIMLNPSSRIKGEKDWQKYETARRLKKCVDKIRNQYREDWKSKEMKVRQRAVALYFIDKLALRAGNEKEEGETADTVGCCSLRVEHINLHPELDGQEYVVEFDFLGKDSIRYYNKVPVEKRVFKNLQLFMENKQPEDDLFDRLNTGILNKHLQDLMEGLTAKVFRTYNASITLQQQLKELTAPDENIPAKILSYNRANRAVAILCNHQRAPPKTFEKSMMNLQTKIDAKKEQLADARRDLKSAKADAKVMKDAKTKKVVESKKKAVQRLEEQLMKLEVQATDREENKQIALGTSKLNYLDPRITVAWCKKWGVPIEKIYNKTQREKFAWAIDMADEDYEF
# What was measured:
# Assay in all cases: AtheNA, Ab 12.5 ug/ml
# Centromere B = biological target: T1, Centromere B
# SSA = biological target: T4, SSA
# T4 construct: also called SSA (Ro)
# Histones = biological target: T5, Histones
# T5 construct: Mixture of proteins
# Sm (Smith antigen) = biological target: T6, Sm (Smith antigen)
# T6 construct: Protein complex
# SSB = biological target: T2, SSB
# Scl-70 = biological target: T3, Scl-70
# RNP (ribonucleoprotein) = biological target: T7, RNP (ribonucleoprotein)
# T7 construct: Protein-RNA complex
binder,measurement,setting,value
"CH557 (antibody, V domains shown, also called CH235.12; CH557_4A/293i) VH: QVRLAQYGGGVKRLGATMTLSCVASGYTFNDYYIHWVRQAPGQGFELLGYIDPANGRPDYAGALRERLSFYRDKSMETLYMDLRSLRYDDTAMYYCVRNVGTAGSLLHYDHWGSGSPVIVSS VL: EIVLTQSPATLSASPGERVTLTCRASRSVRNNVAWYQHKGGQSPRLLIYDASTRAAGVPARFSGSASGTEFTLAISNLESEDFTVYFCLQYNNWWTFGQGTRVDIK",AtheNA signal,Centromere B,16 relative luminescence units
same,AtheNA signal,SSA,3 relative luminescence units
same,AtheNA signal,Histones,6 relative luminescence units
same,AtheNA signal,Sm (Smith antigen),6 relative luminescence units
same,AtheNA signal,SSB,9 relative luminescence units
same,AtheNA signal,Scl-70,3 relative luminescence units
same,AtheNA signal,RNP (ribonucleoprotein),3 relative luminescence units
